Results on 1 molecule are retold here after patent publication US20180057589A1 (Genentech, published 2018).

For test [1], the target named is T1, FLAG-Human-Notch2-NRR-6xHis (human, UniProt Q04721 1306-1676).
T1 construct: Whole tagged antigen construct; also called NRR2; hNotch2 NRR
T1 sequence: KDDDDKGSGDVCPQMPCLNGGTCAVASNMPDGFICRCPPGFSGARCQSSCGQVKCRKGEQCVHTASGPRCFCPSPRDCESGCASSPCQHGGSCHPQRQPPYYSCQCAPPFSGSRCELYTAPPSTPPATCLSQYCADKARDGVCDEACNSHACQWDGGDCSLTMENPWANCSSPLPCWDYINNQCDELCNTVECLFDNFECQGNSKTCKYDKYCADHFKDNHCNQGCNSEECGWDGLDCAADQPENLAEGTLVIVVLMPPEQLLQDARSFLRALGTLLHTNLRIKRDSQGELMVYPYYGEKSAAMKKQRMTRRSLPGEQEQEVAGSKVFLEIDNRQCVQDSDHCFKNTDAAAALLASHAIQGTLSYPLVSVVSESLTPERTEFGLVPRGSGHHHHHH
In words: SPR (BIAcore-3000), IgG captured by anti-human IgG, Notch2 NRR injected; human Notch2 NRR antigen. Here is the method:
(§1) For kinetics measurements, two-fold serial dilutions of human and mouse Notch2 NRR (3.9 nM to 500 nM) were injected in PBT buffer (PBS with 0.05% Tween 20) at 25° C. with a flow rate of 30 μl/min. Association rates (kₒₙ) and dissociation rates (koff) were calculated using a simple one-to-one Langmuir binding model (BIAcore Evaluation Software version 3.2). The equilibrium dissociation constant (KD) was calculated as the ratio koff/kₒₙ.
For orientation: Surface plasmon resonance follows binding to a sensor surface in real time, without labels.

Test [2] deals with T1, FLAG-Human-Notch2-NRR-6xHis. In words: ELISA, lower panel: Flag-tagged NRR protein captured by anti-Flag antibody, titration of α-NRR2, AP-conjugated anti-human secondary antibody, A560. An excerpt: (§2) Anti-Flag antibody was used to capture Flag-Tagged NRR protein from all four Notch receptors in a black walled, high binding plate (Greiner). NRR antibody and E25 control antibodies were bound to the NRR proteins and washed away with PBS. An Alkaline Phosphate conjugated anti-human (H+L) secondary antibody (Jackson ImmunoResearch) was used to detect bound anti-NRR and E25. Unbound secondary was washed away and AP was detected with PNPP substrate (Pierce).

The next test concerns the target T2, Mouse Notch2-NRR-FLAG (mouse, UniProt O35516 1306-1678).
T2 construct: Whole tagged antigen construct; also called murine Notch2 NRR; mNotch2 NRR
T2 sequence: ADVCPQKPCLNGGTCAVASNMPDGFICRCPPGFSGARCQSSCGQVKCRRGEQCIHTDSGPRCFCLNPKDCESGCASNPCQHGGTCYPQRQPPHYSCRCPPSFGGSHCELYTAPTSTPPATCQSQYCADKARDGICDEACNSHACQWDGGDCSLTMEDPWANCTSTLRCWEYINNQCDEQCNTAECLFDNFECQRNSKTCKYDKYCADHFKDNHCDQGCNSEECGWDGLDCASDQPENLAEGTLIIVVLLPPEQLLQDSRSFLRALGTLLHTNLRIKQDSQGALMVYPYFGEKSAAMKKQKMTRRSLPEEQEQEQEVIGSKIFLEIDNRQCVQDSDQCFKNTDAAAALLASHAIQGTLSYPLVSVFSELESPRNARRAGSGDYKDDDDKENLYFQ
The test is described as follows: SPR (BIAcore-3000), IgG captured by anti-human IgG, Notch2 NRR injected; mouse Notch2 NRR antigen. Here is the method: as §1

A further test addresses T3, mouse Notch4-NRR protein (mouse, UniProt P31695 1168-1441, limits assumed).
T3 construct: domain: NRR; also called mNotch4 NRR
T3 sequence (looked up): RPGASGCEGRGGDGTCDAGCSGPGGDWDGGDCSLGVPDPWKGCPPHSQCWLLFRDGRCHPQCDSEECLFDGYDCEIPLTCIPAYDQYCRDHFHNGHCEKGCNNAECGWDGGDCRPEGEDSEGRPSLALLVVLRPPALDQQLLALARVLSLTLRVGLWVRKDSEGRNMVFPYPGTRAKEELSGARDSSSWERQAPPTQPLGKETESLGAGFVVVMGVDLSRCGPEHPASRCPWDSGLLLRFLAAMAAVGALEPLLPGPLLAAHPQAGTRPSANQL
In words: ELISA, lower panel: Flag-tagged NRR protein captured by anti-Flag antibody, titration of α-NRR2, A560.
Source text: as §2
In general terms: An ELISA detects its analyte on a solid surface through an enzyme-linked reagent.

For the next test, the target named is T4, human Notch1 NRR protein (human, UniProt P46531 1446-1733).
T4 construct: Purified NRR fragment (Flag-tagged in the ELISA); also called NRR1; hNotch1 NRR
T4 sequence: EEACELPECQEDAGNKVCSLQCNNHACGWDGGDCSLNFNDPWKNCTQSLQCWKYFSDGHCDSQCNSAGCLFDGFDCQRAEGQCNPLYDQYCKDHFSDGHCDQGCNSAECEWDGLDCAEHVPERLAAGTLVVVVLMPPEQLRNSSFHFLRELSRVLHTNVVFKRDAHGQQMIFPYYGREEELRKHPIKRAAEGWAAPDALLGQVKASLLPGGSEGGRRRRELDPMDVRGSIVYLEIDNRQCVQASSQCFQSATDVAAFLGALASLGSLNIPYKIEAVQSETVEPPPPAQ
The test is described as above.
Source text: as §2

Another test addresses T5, mouse Notch3-NRR protein (mouse, UniProt Q61982 1385-1641, limits assumed).
T5 construct: domain: NRR; also called mNotch3 NRR
T5 sequence (looked up): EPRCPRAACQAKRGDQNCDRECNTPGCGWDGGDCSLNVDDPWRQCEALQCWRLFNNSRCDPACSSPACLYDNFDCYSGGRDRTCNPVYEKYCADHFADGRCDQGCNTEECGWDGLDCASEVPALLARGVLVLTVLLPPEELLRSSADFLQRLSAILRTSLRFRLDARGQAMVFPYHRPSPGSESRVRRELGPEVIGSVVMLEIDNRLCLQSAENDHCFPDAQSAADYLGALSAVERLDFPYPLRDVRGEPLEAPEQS
Described as above.
Source text: as §2

The target of a further test is T6, human Notch3-NRR protein (human, UniProt Q9UM47 1384-1641, limits assumed).
T6 construct: domain: NRR; also called hNotch3 NRR
T6 sequence (looked up): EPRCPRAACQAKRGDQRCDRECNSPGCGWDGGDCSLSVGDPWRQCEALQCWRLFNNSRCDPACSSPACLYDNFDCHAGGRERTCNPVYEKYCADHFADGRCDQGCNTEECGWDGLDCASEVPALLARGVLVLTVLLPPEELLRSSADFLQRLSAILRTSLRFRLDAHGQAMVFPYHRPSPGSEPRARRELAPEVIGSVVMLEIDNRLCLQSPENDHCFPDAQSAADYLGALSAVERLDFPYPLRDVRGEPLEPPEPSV
Described as above.
Source text: as §2

Another test deals with T7, mouse Notch1 NRR protein (mouse, UniProt Q01705 1446-1723).
T7 construct: Purified NRR fragment (Flag-tagged in the ELISA); also called mNotch1 NRR
T7 sequence: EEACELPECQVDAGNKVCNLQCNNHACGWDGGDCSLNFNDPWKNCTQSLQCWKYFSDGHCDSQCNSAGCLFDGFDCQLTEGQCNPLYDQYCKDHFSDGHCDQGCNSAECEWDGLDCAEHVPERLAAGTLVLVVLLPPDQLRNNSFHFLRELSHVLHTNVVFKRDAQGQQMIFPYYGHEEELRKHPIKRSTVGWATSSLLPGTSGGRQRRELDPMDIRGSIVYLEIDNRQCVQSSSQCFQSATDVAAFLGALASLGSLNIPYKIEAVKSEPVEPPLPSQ
The description is as above.
Source text: as §2

The target of another test is T8, human Notch4-NRR protein (human, UniProt Q99466 1172-1445, limits assumed).
T8 construct: domain: NRR; also called hNotch4 NRR
T8 sequence (looked up): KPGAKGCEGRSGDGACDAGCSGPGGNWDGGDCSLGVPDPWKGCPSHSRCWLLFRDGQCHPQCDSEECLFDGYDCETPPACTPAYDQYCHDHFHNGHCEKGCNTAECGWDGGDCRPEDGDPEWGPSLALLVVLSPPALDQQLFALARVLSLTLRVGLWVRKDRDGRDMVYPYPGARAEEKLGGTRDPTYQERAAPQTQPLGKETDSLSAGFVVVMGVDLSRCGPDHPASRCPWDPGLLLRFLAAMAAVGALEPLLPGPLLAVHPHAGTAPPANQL
Described as above.
Source text: as §2

B1: Antibody D-3 (antibody, V domains shown)
VH: EVQLVESGGGLVQPGGSLRLSCAASGYTFSSYGMSWVRQAPGKGLEWVSYIYPYSGATYYADSVKGRFTISADTSKNTAYLQMNSLRAEDTAVYYCARHSGYYRISSAMDVWGQGTLVTVSA
VL: DIQMTQSPSSLSASVGDRVTITCRASQNIKRFLAWYQQKPGKAPKLLIYGASTRESGVPSRFSGSGSGTDFTLTISSLQPEDFATYYCQQYYRSPHTFGQGTKVEIKR
notes: also called anti-NRR2; α-NRR2
With B1, the Kd (in [1]; with Mouse Notch2-NRR-FLAG) was 5 nM in each case. Also, the EC50 (read off the curve) (commonly the concentration needed to bring the measured effect to its halfway point) in [2] was roughly 0.03 µg/mL. Besides, the binding result with mouse Notch4-NRR protein, in the test with human Notch1 NRR protein, in the test with mouse Notch3-NRR protein, with human Notch3-NRR protein, with mouse Notch1 NRR protein and with human Notch4-NRR protein was “no binding (tested: 10 ug/ml)” throughout.
